# Source: paper PMC9868417, “Functional characterization of a novel aminoglycoside phosphotransferase, APH(9)-Ic, and its variant from Stenotrophomonas maltophilia” (Frontiers in Cellular and Infection Microbiology, 2023)
# Test system: CN[C@@H]1[C@H](O)[C@H](NC)[C@H]2O[C@@]3(O)C(=O)C[C@@H](C)O[C@H]3O[C@@H]2[C@H]1O
# Assay: purified protein
# Assay type: biochemical, Stenotrophomonas maltophilia
# Details: 2 mM ATP, 10 mM MgCl2, 20 mM KCl, 100 mM HEPES pH 7.0, 37 °C
substance,measurement,value
APH(9)-Ic (Stenotrophomonas maltophilia K279a),Km,31 ± 5 µM
same,kcat,1.09 ± 0.09 s⁻¹
